From paper PMC6648666 come the findings set out here.

One data set addresses T1, HqRRM1 (hnRNP H qRRM1) (human, UniProt P31943 10-111).
T1 sequence: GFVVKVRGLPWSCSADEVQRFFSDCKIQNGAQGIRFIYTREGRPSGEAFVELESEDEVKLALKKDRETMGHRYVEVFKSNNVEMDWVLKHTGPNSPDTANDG
Description: ITC. In general terms: Isothermal titration calorimetry measures the heat released or taken up as one component is titrated into another.

The next data set addresses T2, HqRRM2 (hnRNP H qRRM2) (human, UniProt P31943 94-194).
T2 sequence: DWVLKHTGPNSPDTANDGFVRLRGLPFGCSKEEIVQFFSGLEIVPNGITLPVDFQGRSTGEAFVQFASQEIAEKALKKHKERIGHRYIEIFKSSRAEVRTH
Description: ITC.

Data set [1] addresses T3, HqRRM1,2 (hnRNP H tandem qRRMs) (human, UniProt P31943 10-194).
T3 sequence: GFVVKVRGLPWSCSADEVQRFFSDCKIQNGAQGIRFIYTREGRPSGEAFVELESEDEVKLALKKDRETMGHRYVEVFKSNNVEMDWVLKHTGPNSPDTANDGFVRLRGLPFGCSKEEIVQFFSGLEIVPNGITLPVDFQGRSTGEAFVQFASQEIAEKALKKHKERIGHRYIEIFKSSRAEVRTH
Description: ITC.

The next data set concerns the target T4, HqRRM1,2 BTFA-labeled (human, UniProt P31943 10-194).
T4 sequence: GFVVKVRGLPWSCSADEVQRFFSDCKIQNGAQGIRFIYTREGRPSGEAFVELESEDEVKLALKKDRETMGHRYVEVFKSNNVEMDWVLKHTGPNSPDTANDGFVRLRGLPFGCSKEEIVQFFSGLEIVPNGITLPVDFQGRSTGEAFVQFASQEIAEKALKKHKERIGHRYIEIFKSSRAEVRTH
Description: 19F NMR PRE.

Regarding AGGGU (ssRNA), the values for the Kd (with HqRRM1 (hnRNP H qRRM1); in the data set with HqRRM2 (hnRNP H qRRM2); in data set [1]) were 3.2 ± 0.1 µM, 2.2 ± 0.8 µM and 0.8 ± 0.1 µM, respectively.

For AGGGAU (ssRNA, phosphorothioate between A5 and U6) [AGGGA*U spin-labeled], the binding result with HqRRM1,2 BTFA-labeled is on record as “binds”.
